This passage reports amyloid nucleation score results from the supplement of paper PMC12042874.

± gives the uncertainty stated by the source.

The data set can be described thus: amyloid nucleation score (Sup35N fusion, yeast selection) (log enrichment); library NNK1; higher = more nucleation; inactive = no reads after selection. The procedure, abridged: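 Peptides of 20 random codons, each fused to Sup35N, were expressed in psi-negative yeast. Cells were induced with 100 μM copper sulfate for 24 hours and grown 7 days at 30°C on medium lacking adenine and uracil, and plasmid inserts before and after selection were Illumina-sequenced. Nucleation scores are DiMSum log enrichments of output over input reads, centred on the mode score of non-aggregating sequences, and sequences under 100 input reads were excluded.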

As to NLFLMLVDLVSLGTTI, the amyloid nucleation score amounted to 2.08 ± 0.51.
Substance VVLCSVLTFDPSAEHLCTLV gave an amyloid nucleation score of 6.44 ± 0.066.
Under FDRHPGTYCDVKLLCREHSA stands “inactive”.
Under GHWLYMTYLCL stands 0.459 ± 0.75; under QCIPLLAGSYCAQML, 0.914 ± 0.14.
As for CLCMSC, the figure is 0.108 ± 0.43; as for LITNP, 2.86 ± 0.12.
Substance GWSLNQVVCCALCSVSRRKR showed an amyloid nucleation score of 0.553 ± 0.48.
Under CDGDASAYDTRGTALSA stands “inactive”.
Regarding LLVVSYFITSLSTCMFGYWK, the amyloid nucleation score is -0.411 ± 0.63.
GFKGILTYGRGVLVHFYRPQ returned an amyloid nucleation score of 0.09 ± 0.35.
As for EILIYNNYETFLVSFFEYGG, the figure is 4.21 ± 0.083.
As for DPLRMILVISFRMVRFIQWP, the figure is 0.072 ± 0.32; as for GSCVCECGWIFTARGVRVFK, -0.346 ± 0.42.
Under FLVHSTGGHVNISFTSVIYL stands 7.889 ± 0.048.
In turn, IMTESCCG returned an amyloid nucleation score of 0.743 ± 0.54.
Under YFVFFLRDLFWRRKI stands 0.408 ± 0.41.
As for SGWSYRRAGRHWMAMMGNKF, the figure is -0.04 ± 0.34; as for IHRFKFGG, 1.98 ± 0.2.
As for VLEDCNMRGK, the figure is 0.789 ± 0.36; as for KKRICFMSLSQRWRSRTTCW, 0.164 ± 0.3; as for TSRFPKASKSRLTRDCP, 0.323 ± 0.35.
Take VPMPGNDQWDGKRGYICIRS: the amyloid nucleation score was 1.31 ± 0.48.
Under LTTPSFYLAGCSSS stands -0.059 ± 0.36; under WFTAHMCDNHYSTIPNSPRQ, 1 ± 0.81.
Substance YFKAMEVTFSFWH had an amyloid nucleation score of 0.491 ± 0.23.
As for LFGKRCGHGQCQDHWKAVCV, the figure is -0.008 ± 0.61; as for ISECDICERR, -0.236 ± 0.68; as for SPTTRTCNLVKIQGTNLSHR, 1.36 ± 0.66.
Under SQVMSRLLGKFKLY stands -0.609 ± 0.32; under SLRSHML, 0.938 ± 0.98.
With GRYWSCEATRLCKYFGCTMR, the amyloid nucleation score is -0.212 ± 0.48.
As for HIESNYRSERTDGWYICRSG, the figure is 1.11 ± 0.2; as for NFLIDTYCVNSFNVTL, 2.67 ± 0.17; as for CRTHDKCKDSGHSRLNGYSG, -0.299 ± 0.51.
Under NNGKSIPFPGGARKVSLGSG stands 0.087 ± 0.26.
Under PNTSEWTDWCRVLVEWGQGS stands 0.394 ± 0.18.
Consider LTEYFSSVVEYDGYPVLSE, for which the amyloid nucleation score was -0.91 ± 1.
As for PPRYLMRDLTHWSPYR, the figure is 1.34 ± 0.7; as for SSQVIVCDVYSQVTRFSFCE, 0.557 ± 0.29; as for GHDLSVPWRTDWLRGL, 0.177 ± 1.2.
Under LCLRVEGGNKPTEHCITSPT stands -0.234 ± 0.43; under RGSNAMDYSEVFCWMYNDLL, 1.11 ± 0.58; under ACTYYIWVLSCAGPRAGGKE, 7.257 ± 0.048.
As for RYYMGTIWILGEFGSLFWMM, the figure is 0.06 ± 0.39; as for ECVNLLR, 0.471 ± 0.25; as for NELMSYVWQDKPRKYRYLF, 1.2 ± 0.13.
VDGRDKSFQSFYCKK gave an amyloid nucleation score of 0.236 ± 0.56.
Substance APSWYRSLMRSSA had an amyloid nucleation score of 0.159 ± 0.34.
As for MYRMFRSFKFEWYCELWVLS, the figure is -0.125 ± 0.5; as for YTTVVQF, 0.064 ± 0.23; as for VDISVAYRC, -1.59 ± 1.3.
Under FNVHNWAQRTVEHGETLFRD stands 1.57 ± 0.45; under THTRCLLVW, 0.216 ± 0.46; under ICSWPNRRVAVPH, -0.482 ± 1.2.
Under CYHQFGV stands “inactive”; under VSGFGSTYLLCVN, 0.589 ± 1.2; under VIAILLDGHLKVFTTLGYNR, -1.59 ± 1.5.
Substance AESSLLSLIVFNTNYFEAGQ returned an amyloid nucleation score of 6.753 ± 0.046.
Take GFDFMWGGGFRNSRNRFQLS: the amyloid nucleation score was 0.428 ± 0.6.
The substance GVTYNLK had an amyloid nucleation score of -0.685 ± 1.
As to CSYGARGIWATESIVANKSV, the amyloid nucleation score result was “inactive”.
Under TVNARVGVSIFYYWV stands 0.345 ± 0.93.
As for NAFNHFYPTQPFLVQDCWRR, the figure is 0.605 ± 0.72; as for VYRLRLVFKVSYFIIECHKG, -0.851 ± 0.4.
Under FRTRGFLHSKVLVRLQYWIK stands 0.494 ± 0.5; under CERQNYVP, 0.326 ± 1.2; under ININRNK, “inactive”.
MVIHP came in with an amyloid nucleation score of 3.57 ± 0.087.
Under TVTLGVPRQCAGTCRMVSLN stands “inactive”; under CMSIRWSCYPLNNQVVATEV, 0.044 ± 0.29; under TGNHSEVTT, 0.233 ± 0.32.
Substance EMIMVGSMYSRGNSTCFPRA had an amyloid nucleation score of 0.777 ± 0.17.
As for FRRLMLWSCSV, the figure is -0.098 ± 1.3.
As for TQSRPLETGCPQLERSGLLA, the figure is -0.692 ± 0.81; as for LGQLFHGGCD, 0.3 ± 0.43; as for MCDDHWFPAIYKRLVSSNKQ, 1.87 ± 0.57.
Under IRSQKCCFLHRWFLACFRII stands -0.624 ± 1.1.
Substance MVCTYNVRCIEMETRYPRSR returned an amyloid nucleation score of 0.791 ± 0.97.
Under RLYWWDVMTSNMFVMAFRSR stands “inactive”; under VINIFMVSLANTETDPTAHL, 8.324 ± 0.071; under DTGLRLD, 0.536 ± 0.54.
Take YRDTVGVYYRFIRGYWMCTW: the amyloid nucleation score was -0.396 ± 0.42.
Under PINGEGSVSTLNDMVLSRSI stands 1.26 ± 0.81.
As for WVHMFMHDYNMRYTFSVYMC, the entry is “inactive”.
Under RSVAHSYT stands 0.661 ± 0.54; under KVLGQGYERMDLFIVVFR, -0.357 ± 0.59.
In turn, YWLSSVHSQSRVAK had an amyloid nucleation score of -0.298 ± 1.7.
Under FLTFKMN stands “inactive”; under VMSSKDKLIWYTFL, 5.199 ± 0.049.
Under FGFFWV stands 0.099 ± 0.7; under ACVLTAKMAARRIHMWQGLF, -0.744 ± 0.84; under HWSSSVSVNGVRYTFMSTSR, -2.08 ± 2.7.
As for AGSGMLSKLVLLSRKSVSCN, the figure is 1.02 ± 0.74; as for YKCVYFGMETAVGNTAQERP, 0.861 ± 0.77; as for CRISTGNGVI, “inactive”.
For ILHQAILRCVSRYGLS, the amyloid nucleation score was -0.012 ± 0.76.
LCQVTG had an amyloid nucleation score of 0.391 ± 0.48.
As for QQRLWRNAWTDMARKVSTSR, the figure is 0.452 ± 1.2; as for MDTFSIMTYLAWQSNELLLI, 1.22 ± 0.23; as for FMSYFVPSQQYLTASSRQKT, -0.544 ± 1.1.
Consider GYYIEMLYFMEALDIS, for which the amyloid nucleation score result was “inactive”.
The substance STNACRPVMAQGDHGLSVLR returned an amyloid nucleation score of 0.283 ± 0.6.
As to CKTGGFYRSVGRTTRFCHVE, the amyloid nucleation score is -0.321 ± 0.39.
